Results: the nanobody polyreactivity screen of Harvey et al. (2022)

Test: yeast display, Sf9 membrane polyspecificity reagent, FACS + sequencing; frameworks hold sequencing errors
How it was run: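 Nanobodies from a synthetic yeast display library (Saccharomyces cerevisiae BJ5465), induced 36–48 hours with galactose, were stained 1 hour at 4 °C with 10% biotinylated, detergent-solubilized Sf9 membrane reagent, enriched on streptavidin microbeads, then FACS-sorted. Anti-HA (expression) and streptavidin (reagent binding) fluorescence set low and high (top ~1%) gates. Polyreactivity labels come from the gate of origin. Genes were colony-PCR amplified, MiSeq 2 × 250 sequenced and filtered by CDR length.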

Sequence	polyreactivity (PSR sort gate)
QVQLVESCGGLVQAGGSLRLSCAASGRIFLVYAMGWYRQAPGKERELVAAISWSTGSTYYADSVKGRFTISRDNAKNTVYLQMNSLKPEDTAVYYCAAEPELDEFEHDYWGQGTQVTVSS	low polyreactivity
QVQLVESCGGLVQAGGSLRLSCAASGRIIRKYDMGWYRQAPGKERELVAAISGTGITYYADSVKGRFTISRDNAKNTVYLQMNSLKPEDTAVYYCARGSKPRAWSWAYPSATSIYDYLGQGTQVTVSS	low polyreactivity
QVQLVESCGGLVQAGGSLRLSCAASGRTFNSYAIGWYRNAPGKERELVAAISWIGGSTYYADSVKGRFTISRDNAKNTVYLQMNSLKPEDTAVYYCAADSYRFYSGYYYWGQGTQVTVSS	low polyreactivity
QVQLVESCGGLVQAGGSLRLSCAASGSIFGDYVMGWYRQAPGKERELVAAINRGGSTYYADSVKGRFTISRDNAKNTVYLQMNSLKPEDTAVYYCAAGYPSWYYGYPYDSWGQGTQVTVSS	low polyreactivity
QVQLVESCGGLVQAGGSLRLSCAASGSIFSGYAMGWYRQAPWKERELVAAITWRAASTYYADSVTGRFTISRDNAMNTVYLQMNSLKPEDTAVYYCAKEGWPKPAFYYCGQGTQVTVSS	low polyreactivity
QVQLVESCGGLVQAGGSLRLSCAASGSIFSRNTMGWYRQAPCKERELVAGISSSGSRTYYADSVKGRFTISRDNSKNTVYLQMNSLKPEYTAVYYCAAEHQRSRGRRYYIGYDYWGQGTQVTVSS	low polyreactivity
QVQLVESCGGLVQAGGSLRLSCAASGSTFSLYGMGWYRQAPAKERELVATITYSGGRTYYADSVKGRFTISLDNAKNTVYLQLNSLKPEDTAVYYCAARLAPLYRTYYYWGQGTQVTVSS	low polyreactivity
QVQLVESCGGLVQAGGSLRLSCAASGSTFVYNSMGWYRQAPGKEREMVDAITWRGSTYYADSVKGRFTISRDNAKNTVYLQMNSLKPEDTAVYYCAARFSNLPEGVTYYYWGQGTQVTVSS	high polyreactivity
QVQLVESCGGLVQAGGSLRLSCAASGYTFSFNAMGWYRQAPGKESELVADINLSGGYTYYADSVKGRFTISRDNAKNTVYLQINSLKPEDTAVYYCAADLYDYWTEGYAFLFEYWGQGTQVTVSS	low polyreactivity
QVQLVESCGGLVQARGSLRLSCAACGRIFIRYALGWYSQAPGTERELVAAITRGGSTYYADSVKGRFTISRDNAKITVFLQMNSVKPEDTAVYYCAGRVGYPYYYWGQGTEVTVSS	high polyreactivity
QVQLVESCLGLVQAGGSLRLSFADSGIIIMFYSMGWYRQATGKERELLAAISASGGRTYYADSVKGRFTISRDNAKNTVYLQMNSLKPEDTAVYYCARLLPTPGKPILDYWGQGTQVTVSS	low polyreactivity
QVQLVESDGGLVQAGGSHPLSSAASGRIIYRYTMGWYRQAPGKERELVAAIRYRTSSTYYADSVKGRFTISRDNAKNTVYLQMNSLKPEDTAVYYCAAYDGLRPHRMDYWGQGTQVTVSS	low polyreactivity
QVQLVESEGGLVQAGGSLRISCAASGRNFRTYDMGWYRQAPGKERELVAAISEEGGYTYYADSVKGRFTISRDNAKNTVYLQMNSLKPEDTAVYYCAKDRPGPLRWWFLYGYWGQGTQVTVSS	low polyreactivity
QVQLVESGAALVQAGGSLRISCAASGSTLDTNAMGRYRPAPGKERELVAAITFSGGTTYYADSVKGRFTISRDNAKNTVYLQMNSLKPEDTAVYYCAAEIWLEYVGYDYWGQGTQVTVSS	high polyreactivity
QVQLVESGAGIVQAGGSLRVSSAASGSIFHSYAMGWYRQEPGKERELVAGITYRTGSTYYADSVKGRVTNSRDNAKNTVYFQMNSLKPEDTAVYYCAAGYYSRYFEAFEYYYWGLGTQVTVSS	high polyreactivity
QVQLVESGAGLGQAGGSLRLSCAASGYTFPSNAMGWYRQAPGKERELVAAISSGGRTNYADSVKGRFTISRDNAKNTVYLQMNSLKPEVTAVYYCNADGGPGYPRAYDYWGPGTQVTVSS	low polyreactivity
QVQLVESGAGLLHAGRSLRLSCPASGRIFRGNAMGCYRQAPGKERELVASISTSGVRTFYADSVKGRFTISRDNAKNTFYLQMNSLKHEDTAVYYCNKRDRYRLYGYNYCGQGTQVTVSS	high polyreactivity
QVQLVESGAGLVHAGGSLRLSCAASGLIYVNAMGWYRQAPGKERDFVAAITYSTGSTYYADSVKGRYTISRDNAKNTVYLQMNSLKPEDSAVYYCATDEHSSGRTPYDYWVQGTQVTVSS	low polyreactivity
QVQLVESGAGLVKAGCSLRISCAASGSSFVTYDMGWYRQAPGKERELVAGISGSGSTNYADSVKGRFTISRDNAKNTVYLQMNSLKPEDTAVYYSAAEYEYLWSQYLTDYGYDYWGQGTQVTVSS	low polyreactivity
QVQLVESGAGLVQAAASLRLSCAASGRTFIYYSMGWYRQAPGKEREFVAIISWNGTSTNYADSVKGRFTISRDNAKNTVYLQMNSLKPEDTAVYYCAASFWTDYYRYDYWGQGTQVTVSS	low polyreactivity
QVQLVESGAGLVQAGGILRLSCAASGLTFSRYTMGWSRQAPGKERELVAAITSSGGSTYYADSVKGRFTISRDNAKNTVSLEMNSLKPEDTAVNYCAARYPGTRGDGYWGLGTQVTVSS	high polyreactivity
QVQLVESGAGLVQAGGRLRLSCAASGSIFWRYAMGWSIQAPGKERELVAAINYSTTRTYYADSVKGRFTISRDNAKNTVYLQMNSLKPVDTAVYYCAADSRVDEGEYWGQGTQVTVSS	high polyreactivity
QVQLVESGAGLVQAGGRLRLSCAASGSTFGYYAMGLYTQAPGTERELVAVITTRVGSTYYADSVKGRFTISRDNAKNTVYLQMNSLKPEDTAVYYCNASGRTRSYSGSFSKHYYWGQGTKVTVSS	high polyreactivity
QVQLVESGAGLVQAGGSLLLSCAASGYIFDVYDMGWYRQAPGKERELVAAITDYADSVKGRFTISRDNAKNTVYLQMNSQKPEDTAVYYCAADTDVLKGTTGFEYWGQGTQVTVSS	low polyreactivity
QVQLVESGAGLVQAGGSLPLSCAASGFTFTIYAMGWYRQAPGKERELVATISGRAGRTYYADSVKGRFTISRDNAKNTVYLQMNSMKPEDTAGYYCNAGQWRYTGLYYYWGQGTQVTVSS	high polyreactivity
QVQLVESGAGLVQAGGSLRFSCAASGSIFDHYVMGWYRQAPGKEREFVAAIPSGDRTNYADSVKGRFTISRDNANNTVYLQMNSLKPEDTAVYYCNADYQYYFYYTTCYYDYDYWGQGTPVTVSS	low polyreactivity
QVQLVESGAGLVQAGGSLRLICAASGSTFVKNVMGCYRQAPGKERELVAGITRGGSTYYADSVKGRFTISRDHAKNSVYLQMNSLYPDDTAVYYWAKRYAWELDYWGQGSQVTVSS	high polyreactivity
QVQLVESGAGLVQAGGSLRLICAATGFTLGSNAMGSYRKAPGKERELVAAISKSGGSTYYADSVKGRFTISRDNAKNTVYLQMNSLKPDDTAVYYCAARYLYQGYRYDYWGQGTQVTVSS	high polyreactivity
QVQLVESGAGLVQAGGSLRLSCAASGFNFRENAMGWYRQAPGKERELVAAISRSGGSTYYADSVKGRFTISRDNAKNTVYLQMNSLKPEDTAVYYCAAPKDYDYWGQGTKVTVSS	low polyreactivity
QVQLVESGAGLVQAGGSLRLSCAASGFTFYPYAMGLYRQAPGKERELVAAINSGGSTYYADSVKGRFTISRDNAKNTVYLQMNSLKPEDTAVYYCAAYGKRGAVAFYYWGQGTQVTVSS	high polyreactivity
